Experimental data as given in US20190040156A1.

Key:
[1] = target: human FcγRI (CD64) (human) (UniProt P12314); assay: SPR, Biacore T200, antibody captured on protein A, FcγR as analyte, 37 °C, N=3
[2] = target: human FcγRIIb (CD32b) (human) (UniProt P31994); assay: as above
[3] = target: human TNFα (human) (UniProt P01375); assay: CG-MALS of antibody:TNFα complexes, molar ratios about 0.5 to 5.0, antibody 10 µg/mL, PBS pH 7.2
human TNFα (human), sequence (P01375 77-233 limits assumed): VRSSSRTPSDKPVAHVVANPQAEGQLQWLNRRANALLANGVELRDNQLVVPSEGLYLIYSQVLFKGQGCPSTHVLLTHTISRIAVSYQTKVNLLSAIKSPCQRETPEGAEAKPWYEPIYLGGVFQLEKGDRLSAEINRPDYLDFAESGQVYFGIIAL

human FcγRI (CD64) (human), sequence (P12314 16-288 limits assumed): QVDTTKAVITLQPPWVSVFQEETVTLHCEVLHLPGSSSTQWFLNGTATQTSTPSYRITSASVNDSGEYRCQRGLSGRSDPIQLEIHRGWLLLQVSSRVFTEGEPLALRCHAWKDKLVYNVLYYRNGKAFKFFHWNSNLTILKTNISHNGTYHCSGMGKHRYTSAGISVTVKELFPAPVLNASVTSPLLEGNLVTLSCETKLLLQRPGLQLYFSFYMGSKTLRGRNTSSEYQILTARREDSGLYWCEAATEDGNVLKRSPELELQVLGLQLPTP
human FcγRIIb (CD32b) (human), sequence (P31994 43-217 limits assumed): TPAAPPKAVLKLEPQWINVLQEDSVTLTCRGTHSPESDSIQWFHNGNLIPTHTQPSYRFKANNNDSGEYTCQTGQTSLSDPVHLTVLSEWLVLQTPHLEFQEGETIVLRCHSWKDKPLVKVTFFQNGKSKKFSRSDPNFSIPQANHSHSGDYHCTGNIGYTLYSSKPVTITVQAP

- Kd [1]: 0.0563 nM
- Kd [2]: 5730 nM
- maximum immune complex weight average molecular weight [3]: > 1300 kDa
Substance: parental anti-TNFα antibody (adalimumab, as described in U.S. Pat. No. 6,090,382)
